Data from patent US20220340673A1 (HARBOUR BIOMED SUZHOU, published 2022).

Columns and labels:
[1] = biological target: T1, human BCMA on cells (HEK293T/huBCMA; NCI-H929) (human, UniProt Q02223 1-184); test: FACS on NCI-H929 cell line [B]
T1 construct: whole, on cells; also called human BCMA molecules on NCI-H929 cell line
T1 sequence (looked up): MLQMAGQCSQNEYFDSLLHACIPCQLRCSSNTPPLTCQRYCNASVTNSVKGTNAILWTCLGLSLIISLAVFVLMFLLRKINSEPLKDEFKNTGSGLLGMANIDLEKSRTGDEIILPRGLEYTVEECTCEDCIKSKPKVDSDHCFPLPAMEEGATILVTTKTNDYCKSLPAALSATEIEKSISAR
Protocol: To study the binding activity of the BCMA arm of the BCMA×CD3 bispecific antibody to human BCMA, NCI-H929 cell line with highly expressed BCMA was used for binding experiments with human BCMA at cellular level. Briefly, NCI-H929 cell suspensions were collected. The cell density was adjusted to 1×10⁶ cells/mL, and the cells were inoculated in 96 well V-bottom plates at 100 μL cells/well (Corning, Cat#: 3894), followed by the addition of test antibodies at 100 μL/well, which is gradient diluted at 3 folds of the concentration with 2 folds of the final concentration. Cells were incubated at 4° C. for 2 hours in the dark. Afterwards, cells were washed twice with 100 μL/well of pre-cooled PBS, centrifuged at 500 g for 5 min at 4° C., and followed by discarding the supernatant. 100 μL/well of fluorescent secondary antibody (Alexa Fluor 488-conjugated AffiniPure Goat Anti-Human IgG, Fcγ Fragment Specific, Jackson, Cat#:109-545-06, 1:500 dilution) was added and incubated at 4° C. for 1 hour in the dark. Cells were washed twice with 100 μL/well of pre-cooled PBS, centrifuged at 500 g, 4° C. for 5 min, and followed by discarding the supernatant. Finally, the cells were resuspended with 200 μL/well of pre-cooled PBS, and the fluorescence luminescence signal values were read by BD FACS CANTOII.

[2] = biological target: T2, cynomolgus monkey BCMA on cells (HEK293T/cynoBCMA) (cynomolgus monkey, UniProt A0A2K5UD97 1-183); test: FACS on HEK293T cell strain overexpressing cynomolgus monkey BCMA [B), (C]
T2 construct: whole, on cells

[3] = biological target: T3, cynomolgus monkey CD3 on cynomolgus monkey T cells (cynomolgus monkey, UniProt Q95LI5 22-198); test: FACS on cynomolgus monkey T cells [B]
T3 construct: whole, on cells; CD3 complex on primary T cells
Protocol: To study the in vitro binding activity of the CD3 arm of the BCMA×CD3 bispecific antibody, human and cynomolgus monkey T cells were used for antibody binding experiments at cellular level. Briefly, the density of human and cynomolgus monkey T cells was adjusted to 1×10⁶ cells/mL, respectively. Cells were inoculated at 100 μL cells/well in a 96 well V-bottom plate (Corning, Cat#: 3894), followed by the addition of test antibodies at 100 μL/well, which is gradient diluted at 3 folds of the concentration with 2 folds of the final concentration. Cells were incubated at 4° C. for 1 hour in the dark. Afterwards, cells were washed twice with 100 μL/well of pre-cooled PBS, centrifuged at 500 g in 4° C. for 5 min, and followed by discarding the supernatant. 100 μL/fluorescent secondary antibody (Alexa Fluor 488-conjugated AffiniPure Goat Anti- Human IgG, Fcγ Fragment Specific, Jackson, Cat#:109-545-06, 1: 500 dilution) was added and incubated for 30 min at 4° C. in the dark. Cells were washed twice with 100 μL/well of pre-cooled PBS, centrifuged at 500 g, 4° C. for 5 min, and followed by discarding the supernatant. Finally, the cells were resuspended with 200 μL/well of pre-cooled PBS, and the fluorescence luminescence signal values were read by BD FACS CANTOII.

[4] = biological target: T1, human BCMA on cells (HEK293T/huBCMA; …); test: FACS on HEK293T cell strain overexpressing human BCMA [C]
From the text: To study the in vitro binding activity of the BCMA arm of the BCMA×CD3 bispecific antibody, HEK293T cell strain overexpressing human BCMA (HEK293T/huBCMA) and HEK293T cell strain overexpressing cynomolgus monkey BCMA (HEK293T/cynoBCMA) were used for antibody binding experiments at cellular level. Briefly, HEK293T/huBCMA cells and HEK293T/cynoBCMA cells were digested and resuspended with DMEM complete medium. The cell density of the two was adjusted to 1×10⁶ cells/mL, respectively. Cells were inoculated at 100 μL cells/well in a 96 well V-bottom plate (Corning, Cat#: 3894), followed by the addition of test antibodies at 100 μL/well, which is gradient diluted at 3 folds of the concentration with 2 folds of the final concentration. Cells were incubated at 4° C. for 1 hour in the dark. Afterwards, the cells were washed twice with 100 μL/well of pre-cooled PBS, centrifuged at 500 g for 5 min at 4° C., and followed by discarding the supernatant. 100 μL/well of fluorescent secondary antibody (Alexa Fluor 488-conjugated AffiniPure Goat Anti-Human IgG, Fcγ Fragment Specific, Jackson, Cat#: 109-545-06, 1:500 dilution) was added and incubated for 30 min at 4° C. in the dark. […] Finally, the cells were resuspended with 200 μL/well of pre-cooled PBS, and the fluorescence luminescence signal values were read by BD FACS CANTOII. […]

T3 sequence (Q95LI5 22-198): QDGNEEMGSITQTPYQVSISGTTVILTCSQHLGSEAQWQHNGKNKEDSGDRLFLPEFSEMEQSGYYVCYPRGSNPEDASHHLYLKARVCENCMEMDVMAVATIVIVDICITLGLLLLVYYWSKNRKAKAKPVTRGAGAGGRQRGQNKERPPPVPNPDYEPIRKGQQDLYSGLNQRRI
T2 sequence (A0A2K5UD97 entry or part of it): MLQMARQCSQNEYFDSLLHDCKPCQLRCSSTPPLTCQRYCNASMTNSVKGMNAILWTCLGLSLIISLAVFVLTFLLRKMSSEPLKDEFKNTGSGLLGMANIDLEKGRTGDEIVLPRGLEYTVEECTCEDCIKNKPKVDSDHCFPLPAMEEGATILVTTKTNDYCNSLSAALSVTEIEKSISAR

B1: positive control 2, PR002199 (anti-BCMA (TNB308902) x CD3 (TNB_F2B) bispecific antibody) (bispecific antibody, human IgG1, kappa, L234A L235A)
heavy 1: EVQLVESGGGLVQPGRSLRLSCAASGFTFDDYAMHWVRQAPGKGLEWVSGISWNSGSIGYADSVKGRFTISRDNAKNSLYLQMNSLRAEDTALYYCAKDSRGYGDYRLGGAYWGQGTLVTVSSASTKGPSVFPLAPSSKSTSGGTAALGCLVKDYFPEPVTVSWNSGALTSGVHTFPAVLQSSGLYSLSSVVTVPSSSLGTQTYICNVNHKPSNTKVDKKVEPKSCDKTHTCPPCPAPEAAGGPSVFLFPPKPKDTLMISRTPEVTCVVVDVSHEDPEVKFNWYVDGVEVHNAKTKPREEQYNSTYRVVSVLTVLHQDWLNGKEYKCKVSNKALGAPIEKTISKAKGQPREPQVYTLPPCREEMTKNQVSLWCLVKGFYPSDIAVEWESNGQPENNYKTTPPVLDSDGSFFLYSKLTVDKSRWQQGNVFSCSVMHEALHNHYTQKSLSLSPGK
light: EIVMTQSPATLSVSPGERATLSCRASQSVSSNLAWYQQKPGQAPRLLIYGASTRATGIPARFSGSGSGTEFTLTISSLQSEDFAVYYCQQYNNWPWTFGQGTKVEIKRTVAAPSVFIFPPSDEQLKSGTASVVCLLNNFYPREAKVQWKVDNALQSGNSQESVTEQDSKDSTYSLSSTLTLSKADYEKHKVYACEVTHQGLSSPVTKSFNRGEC
heavy 2: EVQLLESGGGLVQPGGSLRLSCAASGFTVSSYGMSWVRQAPGKGPEWVSGIRGSDGSTYYADSVKGRFTISRDNSKNTLYLQMNSLRAEDTAVYYCAKQGENDGPFDHRGQGTLVTVSSGGGGSEVQLLESGGGLVQPGGSLRLSCAASGFTVSSYGMSWVRQAPGKGPEWVSGIRGSDGSTYYADSVKGRFTISRDNSKNTLYLQMNSLRAEDTAVYYCAKQGENDGPFDHRGQGTLVTVSSASEPKSSDKTHTCPPCPAPEAAGGPSVFLFPPKPKDTLMISRTPEVTCVVVDVSHEDPEVKFNWYVDGVEVHNAKTKPREEQYNSTYRVVSVLTVLHQDWLNGKEYKCKVSNKALGAPIEKTISKAKGQPREPQVCTLPPSREEMTKNQVSLSCAVKGFYPSDIAVEWESNGQPENNYKTTPPVLDSDGSFFLVSKLTVDKSRWQQGNVFSCSVMHEALHNHYTQKSLSLSPGK
notes: Three chains: HC1 (anti-CD3 heavy), LC (anti-CD3 kappa light), HC2 (two tandem anti-BCMA VH, then Fc)
B1 was tested, and the EC50 [1] was 8.7 nM, the binding result [2] was “no binding (tested: 100 nM)” and the binding result [3] was “no binding (tested: about 300 nM)”. It also gave an EC50 [4] of 0.602 nM.
